B1: Monoclonal antibody 1A8.G11.E7 (antibody, mouse IgG1, V domains shown)
VH: ESGPGLVAPSQSLSITCTVSGFSLTSYGVSWVRQPPGKGLEWLGVIWGDGSTNYHSTLISRLSISKDNSKSQVFLKLNSLQTDDTATYYCAKPHPAATGAMDYWGQGTSVTVSS
VL: TQTTSSLSASLGDRVTISCRASQDISNHLNWYQQKPDGTVKLLIYYTSRLHSGVPSRFSGSGSGTDYSLTISNLEQEDIATYFCQQGNTLWTFGGGTKLEIK
notes: Murine IgG1 kappa from hybridoma; also called ATCC PTA-123100
B2: Monoclonal antibody 24H8.F3 (antibody, mouse IgG1, V domains shown)
VH: GPGLVAPSQSLSITCTVSGFSLTSYGVSWVRQPPGKGLEWLGVIWGDGSTNYHSTLISRLSISKDNSKSQVFLKLNSLQTDDTATYYCAKPHPAATGAMDYWGQGTSVTVSS
VL: TTSSLSASLGDRVTISCRASQDISNHLNWYQQKPDGTIKLLIYYTSKLHSGVPSRFSGSGSGTDYSLTISNLEQEDIATYFCQQGNTLWTFGGGTKLEIK
notes: Murine IgG1 kappa from hybridoma; also called ATCC PTA-123097
B3: Monoclonal antibody 1D2.D8.G10 (antibody, mouse IgG1, V domains shown)
VH: QSGTVLARPGASVKMSCKASGYSFTSNWMHWIKQRPGQGLEWIGAIYPGNSDTSYNQKFKGKAKLTAVTSASTAYMELSSLTNEDSAVYHCTRGDGSSFWYFDVWGAGTTVTVSS
VL: QSPASLVVSLGQRATISCRASKSVSTSGYSYMYWYQQKSGQPPKLLIYLASNLESGVPARFSGGGSGTDFTLNIHPVEEEDAATYYCQQSRELPPTFGGGTKLEIK
notes: Murine IgG1 kappa from hybridoma; also called 1D2.D8.G0; ATCC PTA-123098

Columns and labels:
[1] = target: T1, recombinant purified FRα (ECL assay calibrator) (human, UniProt P15328 25-234); assay: ECL sandwich, FRα calibrator; capture 19D2.G9; binder = detection Ab
T1 construct: Calibrator of the ECL sandwich assays; also called FRα calibrator; FRα standard
T1 sequence (P15328 25-234 limits assumed): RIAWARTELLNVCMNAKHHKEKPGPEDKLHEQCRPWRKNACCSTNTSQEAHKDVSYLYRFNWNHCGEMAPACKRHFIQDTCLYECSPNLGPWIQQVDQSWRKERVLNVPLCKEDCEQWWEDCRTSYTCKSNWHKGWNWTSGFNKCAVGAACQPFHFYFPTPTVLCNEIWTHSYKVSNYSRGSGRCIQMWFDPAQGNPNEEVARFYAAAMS

[2] = target: T1, recombinant purified FRα (ECL assay …); assay: ECL sandwich, FRα calibrator; capture 6A2.G7; binder = detection Ab
[3] = target: T1, recombinant purified FRα (ECL assay …); assay: ECL sandwich on FRα, signal to background; capture 28H12.G9; binder = detection Ab
[4] = target: T1, recombinant purified FRα (ECL assay …); assay: ECL sandwich on FRα, signal to background; capture 1C6.E12.G8; binder = detection Ab
[5] = target: T1, recombinant purified FRα (ECL assay …); assay: ECL sandwich on FRα, signal to background; capture 6A2.G7; binder = detection Ab
[6] = target: T1, recombinant purified FRα (ECL assay …); assay: ECL sandwich on FRα, signal to background; capture 1D2.G8.G10; binder = detection Ab
[7] = target: T1, recombinant purified FRα (ECL assay …); assay: ECL sandwich on FRα, signal to background; capture 19D4.B7; binder = detection Ab
[8] = target: T1, recombinant purified FRα (ECL assay …); assay: ECL sandwich on FRα, signal to background; capture 5C12.H8; binder = detection Ab
[9] = target: T1, recombinant purified FRα (ECL assay …); assay: ECL sandwich, FRα calibrator; capture 5C12.H8; binder = detection Ab
[10] = target: T1, recombinant purified FRα (ECL assay …); assay: ECL sandwich, FRα calibrator; capture 2F11.F8; binder = detection Ab
[11] = target: T1, recombinant purified FRα (ECL assay …); assay: ECL sandwich, FRα calibrator; capture 24H8.D3; binder = detection Ab
[12] = target: T1, recombinant purified FRα (ECL assay …); assay: ECL sandwich, FRα calibrator; capture 28H12.G9; binder = detection Ab
[13] = target: T1, recombinant purified FRα (ECL assay …); assay: ECL sandwich, FRα calibrator; capture 19D4.B7; binder = detection Ab
[14] = target: T1, recombinant purified FRα (ECL assay …); assay: ECL sandwich on FRα, signal to background; capture 30G6.G6.G4.E9; binder = detection Ab
[15] = target: T2, human folate receptor gamma (FRγ), recombinant, C-terminal 6xHis (human, UniProt P41439 23-245, limits assumed); assay: direct ELISA, plates coated with 1 µg/mL FR isoform, dilution series of culture supernatant
T2 construct: Transiently expressed in 293F cells and purified; coated on ELISA plates
T2 sequence (P41439 other isoform, or with tags, fused parts or gaps limits assumed): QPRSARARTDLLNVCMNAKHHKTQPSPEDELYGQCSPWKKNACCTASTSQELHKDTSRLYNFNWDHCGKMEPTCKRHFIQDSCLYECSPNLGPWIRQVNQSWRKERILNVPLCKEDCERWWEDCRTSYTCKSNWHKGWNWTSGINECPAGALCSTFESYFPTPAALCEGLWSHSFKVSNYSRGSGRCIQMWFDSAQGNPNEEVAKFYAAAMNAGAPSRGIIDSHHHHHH

[16] = target: T3, human folate receptor beta (FRβ), recombinant, C-terminal 6xHis (human, UniProt P14207 17-230, limits assumed); assay: as above
T3 construct: Transiently expressed in 293F cells and purified; coated on ELISA plates
T3 sequence (P14207 other isoform, or with tags, fused parts or gaps limits assumed): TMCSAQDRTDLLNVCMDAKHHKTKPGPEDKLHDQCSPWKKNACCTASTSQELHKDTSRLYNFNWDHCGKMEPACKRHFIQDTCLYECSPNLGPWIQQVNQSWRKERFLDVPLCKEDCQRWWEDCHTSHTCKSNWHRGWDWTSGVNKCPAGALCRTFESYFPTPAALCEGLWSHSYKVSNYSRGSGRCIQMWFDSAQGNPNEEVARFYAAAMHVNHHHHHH

[17] = target: T1, recombinant purified FRα (ECL assay …); assay: ECL sandwich on FRα, signal to background; capture 24H8.F3; binder = detection Ab
[18] = target: T1, recombinant purified FRα (ECL assay …); assay: ECL sandwich, FRα calibrator; capture 1A8.G11.E7; binder = detection Ab
[19] = target: T1, recombinant purified FRα (ECL assay …); assay: ECL sandwich on FRα, signal to background; capture 26A9.C4; binder = detection Ab
[20] = target: T1, recombinant purified FRα (ECL assay …); assay: ECL sandwich, FRα calibrator; capture 1C6.E12.G8; binder = detection Ab
[21] = target: T1, recombinant purified FRα (ECL assay …); assay: ECL sandwich on FRα, signal to background; capture 2F11.F8; binder = detection Ab
[22] = target: T1, recombinant purified FRα (ECL assay …); assay: ECL sandwich, FRα calibrator; capture 26A9.C4; binder = detection Ab
[23] = target: T1, recombinant purified FRα (ECL assay …); assay: ECL sandwich, FRα calibrator; capture 24H8.F3; binder = detection Ab
[24] = target: T1, recombinant purified FRα (ECL assay …); assay: ECL sandwich on FRα, signal to background; capture 19D2.G9; binder = detection Ab
[25] = target: T1, recombinant purified FRα (ECL assay …); assay: ECL sandwich on FRα, signal to background; capture 24H8.D3; binder = detection Ab
[26] = target: T1, recombinant purified FRα (ECL assay …); assay: ECL sandwich, FRα calibrator; capture 30G6.G6.G4.E9; binder = detection Ab
[27] = target: T1, recombinant purified FRα (ECL assay …); assay: ECL sandwich, FRα calibrator; capture 1D2.G8.G10; binder = detection Ab
[28] = target: T1, recombinant purified FRα (ECL assay …); assay: ECL sandwich on FRα, signal to background; capture 1A8.G11.E7; binder = detection Ab
[29] = target: T4, recombinant human folate receptor alpha (rhFRα) (human, UniProt P15328 25-234); assay: BIAcore (SPR), format not described
T4 construct: CHO: Ig kappa leader, C-terminal 6xHis replacing the GPI attachment site; also called FOLR1; FOLR-1
T4 sequence (P15328 25-234 limits assumed): as the sequence (P15328 25-234 limits assumed) above

| Binder | Specific signal at 500 pg/mL [1] | Specific signal at 500 pg/mL [2] | Average of S/B [3] | Average of S/B [4] | Average of S/B [5] | Average of S/B [6] | Average of S/B [7] | Average of S/B [8] | Specific signal at 500 pg/mL [9] | Specific signal at 500 pg/mL [10] | Specific signal at 500 pg/mL [11] | Specific signal at 500 pg/mL [12] | Specific signal at 500 pg/mL [13] | Average of S/B [14] | binding result [15] | binding result [16] | Average of S/B [17] | Specific signal at 500 pg/mL [18] | Average of S/B [19] | Specific signal at 500 pg/mL [20] | further results |
| --- | --- | --- | --- | --- | --- | --- | --- | --- | --- | --- | --- | --- | --- | --- | --- | --- | --- | --- | --- | --- | --- |
| B1 | 106 | 1840 | 1 | 1 | 27 | 1 | 310 | 1 | 76 | 60 | 84 | 83 | 41400 | 244 | no binding | no binding | 1 | 67 | 1 | 75 | Average of S/B [21]: 1; Specific signal at 500 pg/mL [22]: 80; Specific signal at 500 pg/mL [23]: 87; Average of S/B [24]: 2; Average of S/B [25]: 1; Specific signal at 500 pg/mL [26]: 17900; Specific signal at 500 pg/mL [27]: 64; Average of S/B [28]: 1 |
| B2 | 242 | 1870 | 2 | 1 | 27 | 1 | 327 | 2 | 70 | 61 | 158 | 85 | 33600 | 501 | no binding | no binding | 1 | 139 | 1 | 64 | Average of S/B [21]: 1; Specific signal at 500 pg/mL [22]: 72; Specific signal at 500 pg/mL [23]: 104; Average of S/B [24]: 4; Average of S/B [25]: 2; Specific signal at 500 pg/mL [26]: 28300; Specific signal at 500 pg/mL [27]: 64; Average of S/B [28]: 2 |
| B3 | 67 | 1690 | 1 | 1 | 26 | 1 | 218 | 1 | 73 | 62 | 79 | 78 | 21800 | 75 | no binding | no binding | 1 | 57 | 1 | 74 | Average of S/B [21]: 1; Specific signal at 500 pg/mL [22]: 86; Kd [29]: 6.88 nM; Specific signal at 500 pg/mL [23]: 67; Average of S/B [24]: 1; Average of S/B [25]: 1; Specific signal at 500 pg/mL [26]: 7910; Specific signal at 500 pg/mL [27]: 87; Average of S/B [28]: 1 |

From patent publication US20180148504A1 (EISAI R AND D MANAGEMENT, published 2018)
